The assay relates to HIV-1JRFL. Kind of assay: HIV-1JRFL infection of monocyte-derived macrophages, p24 ELISA. In kind it is cell-based. The note with it: peptide 1 hr before virus, p24 after 72 hr; FIG. 3. The method, then: Monocyte-derived macrophages were treated with the designated concentrations of the indicated peptide for a period of 1 hr prior to addition of HIV-1JRFL. After 2 hr, cells were washed, and viral replication was determined after 72 hr by p24 analysis. Results are representative of 4 independent experiments.
PBMCs were obtained from whole blood of normal donors and isolated by Ficoll-Paque Plus (Pharmacia Biotech, Piscataway, N.J.) density gradient centrifugation, and plated at a cell density of 2×10^6 cells/ml. Monocyte-derived macrophages (MDM) were generated from adherent human peripheral blood mononuclear cells by culture for 7 days with M-CSF (100 ng/ml). […] After 2 hr, cells were washed, and cultured for additional 48-72 hr, followed by analysis of HIV replication as determined by quantification of accumulated p24 in the supernatant. The production of p24 was determined by conventional sandwich ELISA, using ELISA plates pre-coated with capture anti-p24 antibodies provided by the AIDS Vaccine Program (SAIC Frederick, NCI-FCRDC, Frederick, Md.). The captured p24 antigen was detected using rabbit anti-HIV-1 anti-p24 antibody, and a secondary goat anti-rabbit IgG (peroxidase-labeled) antibody. The captured p24 protein was detected using a 3,3′,5,5′-tetramethylbenzidine and hydrogen peroxide detection system (KPL Laboratories, Gaithersburg, Md.). […]
On the technique in general: ELISA stands for enzyme-linked immunosorbent assay.

B1: macrophage inflammatory protein-1β (protein)
chain: APMGSDPPTACCFSYTARKLPRNFVVDYYETSSLCSQPAVVFQTKRSKQVCADPSESWVQEYVYDLELN
On to B1, for which the “inhibition of HIV-1JRFL infection of monocyte-derived macrophages (p24)” value is recorded as “comparable inhibitory activities”.

The values are drawn from patent US20060116325A1, “Methods and compositions for inhibiting hiv-coreceptor interactions” (priority 2001, published 2006).
